The target in data set [1] is T1, APG00868.1-L16-nAPG07433.1 (truncated deaminase) (synthetic).
T1 chain: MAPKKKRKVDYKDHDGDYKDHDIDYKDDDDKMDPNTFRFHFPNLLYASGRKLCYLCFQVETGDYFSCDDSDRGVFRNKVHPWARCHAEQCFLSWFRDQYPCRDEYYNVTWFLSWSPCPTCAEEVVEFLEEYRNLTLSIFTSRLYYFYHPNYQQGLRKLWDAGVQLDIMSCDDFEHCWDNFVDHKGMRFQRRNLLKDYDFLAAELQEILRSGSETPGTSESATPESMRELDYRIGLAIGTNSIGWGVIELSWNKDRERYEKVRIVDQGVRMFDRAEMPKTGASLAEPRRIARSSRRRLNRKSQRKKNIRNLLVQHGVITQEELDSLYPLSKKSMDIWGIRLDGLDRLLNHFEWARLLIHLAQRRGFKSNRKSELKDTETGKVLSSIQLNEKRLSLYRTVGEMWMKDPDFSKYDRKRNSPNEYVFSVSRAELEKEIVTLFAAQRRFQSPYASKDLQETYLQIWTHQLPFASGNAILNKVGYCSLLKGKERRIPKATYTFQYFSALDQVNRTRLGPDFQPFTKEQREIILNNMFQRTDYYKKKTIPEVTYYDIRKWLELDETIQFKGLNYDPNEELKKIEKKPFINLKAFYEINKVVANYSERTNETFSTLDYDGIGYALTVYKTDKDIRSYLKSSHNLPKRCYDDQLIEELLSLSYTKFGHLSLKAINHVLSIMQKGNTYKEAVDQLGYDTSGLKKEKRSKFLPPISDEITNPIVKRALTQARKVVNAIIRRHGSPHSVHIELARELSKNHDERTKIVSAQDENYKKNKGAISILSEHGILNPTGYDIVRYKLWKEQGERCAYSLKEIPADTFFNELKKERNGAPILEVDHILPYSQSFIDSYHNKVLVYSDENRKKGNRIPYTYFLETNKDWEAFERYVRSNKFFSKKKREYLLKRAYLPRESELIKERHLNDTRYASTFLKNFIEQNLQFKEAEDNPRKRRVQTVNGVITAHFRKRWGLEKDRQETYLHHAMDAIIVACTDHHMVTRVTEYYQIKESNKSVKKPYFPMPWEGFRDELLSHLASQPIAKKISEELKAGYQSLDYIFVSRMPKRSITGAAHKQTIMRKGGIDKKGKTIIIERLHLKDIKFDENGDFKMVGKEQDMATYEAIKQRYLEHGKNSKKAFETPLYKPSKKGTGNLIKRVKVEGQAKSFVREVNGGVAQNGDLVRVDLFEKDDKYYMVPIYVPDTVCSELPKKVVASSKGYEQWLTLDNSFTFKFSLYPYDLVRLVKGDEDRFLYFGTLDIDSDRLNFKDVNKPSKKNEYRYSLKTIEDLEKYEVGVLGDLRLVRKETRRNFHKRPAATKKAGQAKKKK
Description: cell_activity; HEK293FT; PAM SEQ 152. The note with it: tags: SV40 NLS, 3xFLAG N-term; nucleoplasmin NLS C-term. Put shortly: (§1)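 Editing read out by next-generation sequencing (MiSeq 2×250) of PCR amplicons spanning the target site, analysed for INDELs or % cytosine conversion per position (position 1 nearest PAM).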

In data set [2] the target is APG05840.1-L16-nAPG07433.1-USP2 (synthetic). Description: cell_activity; HEK293FT; PAM SEQ 152. The note with it: tags: SV40 NLS, 3xFLAG N-term; USP2, nucleoplasmin NLS C-term. In a few lines:
as §1

B1: SGN000169 sgRNA ; SGN000169 target (ssRNA ; dsDNA)
RNA: CACAUCUCGAGCAAGACGUUGUCAUAGUUCCAUUAAAGCCAAAAGUGGCUUUGAUGUUUCUAUGAUAAGGGUUUCGACCCGUGGCGUCGGGGAUCGCCUGCCCAUUGAAAUGGGCUUCUCCCCAUUUAUU
DNA 1: CACATCTCGAGCAAGACGTT
DNA 2: AACGTCTTGCTCGAGATGTG
Molecule B1 displayed an activity in data set [1] of 22.4 % mutated reads.

B2: SGN001101 sgRNA ; SGN001101 target (ssRNA ; dsDNA)
RNA: AUAUUUUCUUUAAUGGUGCCAGGCAGUCAUAGUUCCAUUAAAGCCAAAAGUGGCUUUGAUGUUUCUAUGAUAAGGGUUUCGACCCGUGGCGUCGGGGAUCGCCUGCCCAUUGAAAUGGGCUUCUCCCCAU
DNA 1: ATATTTTCTTTAATGGTGCCAGGCA
DNA 2: TGCCTGGCACCATTAAAGAAAATAT
Turning to B2, the figures for the activity in data set [1] and in data set [2] were 20.4 % mutated reads and 12.7 % mutated reads, respectively.

B3: SGN000929 sgRNA ; SGN000929 target (ssRNA ; dsDNA)
RNA: AUCUGGAGGGAACUUACAGCAUAUGGUCAUAGUUCCAUGAAAGCCAAAAGUGGCUUUGAUGUUUCUAUGAUAAGGGUUUCGGCCCGUGGCGUCGGGGAUCGCCUGCCCAUUCCGAUGGGCUUCUCCCCAUUUAUU
DNA 1: ATCTGGAGGGAACTTACAGCATATG
DNA 2: CATATGCTGTAAGTTCCCTCCAGAT
As to B3, in data set [1], the activity worked out at 14.6 % mutated reads.

B4: SGN000930 sgRNA ; SGN000930 target (ssRNA ; dsDNA)
RNA: GAACAACUCAAAUGGAAAUGAAUAUGUCAUAGUUCCAUGAAAGCCAAAAGUGGCUUUGAUGUUUCUAUGAUAAGGGUUUCGGCCCGUGGCGUCGGGGAUCGCCUGCCCAUUCCGAUGGGCUUCUCCCCAUUUAUU
DNA 1: GAACAACTCAAATGGAAATGAATAT
DNA 2: ATATTCATTTCCATTTGAGTTGTTC
For the molecule B4, the activity in data set [2] worked out at 13.1 % mutated reads.

Source of the values: US20240301385, “DNA MODIFYING ENZYMES AND ACTIVE FRAGMENTS AND VARIANTS THEREOF AND METHODS OF USE” (LIFEEDIT THERAPEUTICS, INC., published 2024).
